Results as given in the supplement of paper PMC12783771.
± gives the standard deviation of the averaged measurements.

B1: library; numbered along this chain (parent)
chain: MNIQIGELAKRTACPVVTIRFYEQEGLLPPPGRSRGNFRLYGEEHVERLQFIRHCRSLDMPLSDVRTLLSYRKRPDQDCGEVNMLLDEHIRQVESRIGALLELKHHLVELREACSGARPAQSCGILQGLSDCVCDTRGTTAHPSD

Tests used:
[1] = variants of: B1; assay: sfGFP reporter fluorescence (15 h) (µM FITC); higher = higher leak; settings: library round: Round 0; ligand: none
Outline: (§1)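 Readout was endpoint sfGFP fluorescence, converted to µM FITC through standard curves. Reactions were 1 μL of BL21 Star (DE3) PANOx-SP extract with pPbrR-sfGFP reporter, 30 μg/mL GamS and linear PbrR templates normalized to 5 nM, containing 1 µM lead chloride, 30 µM zinc acetate or no metal. Incubation lasted 15 hr at 30 °C, with up to three biological replicates.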

[2] = variants of: B1; assay: sfGFP reporter fluorescence (15 h) (µM FITC); higher = stronger transcriptional activation; settings: library round: Round 0
Outline: as §1

| Variant | sfGFP reporter fluorescence [1] | sfGFP reporter fluorescence ([2]; ligand: 1 µM Pb) | sfGFP reporter fluorescence ([2]; ligand: 30 µM Zn) |
| --- | --- | --- | --- |
| V108Y | 0.0608 ± 0.0015 | 0.108 ± 0.0021 | 1.18 ± 0.067 |
| E109A | 0.0636 ± 0.00078 | 0.0804 ± 0.0039 | 0.883 ± 0.35 |
| E109C | 0.0596 ± 0.00078 | 0.0867 ± 0.0054 | 1.54 ± 0.077 |
| E109D | 0.0597 ± 0.0021 | 0.0727 ± 0.0023 | 0.674 ± 0.02 |
| E109F | 0.0621 ± 0.0013 | 0.09126 ± 0.00052 | 1.32 ± 0.051 |
| E109G | 0.05644 ± 0.00052 | 0.0695 ± 0.0013 | 0.793 ± 0.063 |
| E109H | 0.0581 ± 0.0013 | 0.0867 ± 0.0075 | 0.456 ± 0.012 |
| E109I | 0.05919 ± 0.00026 | 0.108 ± 0.0018 | 1.25 ± 0.29 |
| E109K | 0.0649 ± 0.001 | 0.09492 ± 0.00052 | 2.2 ± 0.14 |
| E109L | 0.0586 ± 0.001 | 0.0907 ± 0.0029 | 1.12 ± 0.12 |
| E109M | 0.061 ± 0.0013 | 0.0806 ± 0.0057 | 0.957 ± 0.061 |
| E109N | 0.05974 ± 0.00052 | 0.0845 ± 0.0044 | 1.47 ± 0.018 |
| E109P | 0.0662 ± 0.0023 | 0.155 ± 0.011 | 1.45 ± 0.11 |
| E109Q | 0.0601 | 0.0823 ± 0.0034 | 1.08 ± 0.25 |
| E109R | 0.06542 ± 0.00026 | 0.102 ± 0.0078 | 1.86 ± 0.052 |
| E109S | 0.0592 ± 0.00078 | 0.0803 ± 0.0026 | 1.47 ± 0.04 |
| E109T | 0.0625 ± 0.0018 | 0.0935 ± 0.0026 | 1.71 ± 0.12 |
| E109V | 0.0605 ± 0.0042 | 0.107 ± 0.0096 | 1.69 ± 0.1 |
| E109W | 0.061 ± 0.00078 | 0.0872 ± 0.0026 | 1.26 ± 0.035 |
| E109Y | 0.06029 ± 0.00026 | 0.0832 ± 0.0031 | 1.46 ± 0.15 |
| L110A | 0.0727 ± 0.0013 | 0.0698 ± 0.0018 | 0.0729 ± 0.0026 |
| L110C | 0.05754 ± 0.00052 | 0.0577 ± 0.00078 | 0.0766 ± 0.0042 |

| Variant | sfGFP reporter fluorescence [1] | sfGFP reporter fluorescence ([2]; ligand: 1 µM Pb) | sfGFP reporter fluorescence ([2]; ligand: 30 µM Zn) |
| --- | --- | --- | --- |
| L110D | 0.0575 ± 0.0015 | 0.0586 | 0.0574 ± 0.00078 |
| L110E | 0.059 ± 0.001 | 0.0614 ± 0.0013 | 0.0579 ± 0.001 |
| L110F | 0.05626 ± 0.00026 | 0.0599 ± 0.0018 | 0.0619 ± 0.0021 |
| L110G | 0.05498 ± 0.00052 | 0.0548 ± 0.00078 | 0.0531 ± 0.0031 |
| L110H | 0.0638 ± 0.0021 | 0.081 ± 0.0042 | 2.52 ± 0.29 |
| L110I | 0.05571 ± 0.00052 | 0.0579 ± 0.0015 | 0.542 ± 0.036 |
| L110K | 0.05772 ± 0.00026 | 0.05864 ± 0.00052 | 0.0792 ± 0.0021 |
| L110M | 0.0568 ± 0.0015 | 0.05644 ± 0.00052 | 0.0574 ± 0.0023 |
| L110N | 0.0579 | 0.05791 ± 0.00052 | 0.0627 |
| L110P | 0.0594 ± 0.0015 | 0.0581 ± 0.0018 | 0.0575 ± 0.0015 |
| L110Q | 0.0555 ± 0.0013 | 0.057 ± 0.00078 | 0.05589 ± 0.00026 |
| L110R | 0.0579 ± 0.0015 | 0.0596 ± 0.00078 | 0.06615 ± 0.00026 |
| L110S | 0.05626 ± 0.00026 | 0.05772 ± 0.00026 | 0.0614 ± 0.0018 |
| L110T | 0.05736 ± 0.00026 | 0.0601 ± 0.001 | 0.158 ± 0.0029 |
| L110V | 0.0601 ± 0.0021 | 0.06634 ± 0.00052 | 0.502 ± 0.065 |
| L110W | 0.057 ± 0.0018 | 0.0572 ± 0.0015 | 0.0537 ± 0.0023 |
| L110Y | 0.0581 ± 0.00078 | 0.0597 | 0.0656 ± 0.001 |
| R111A | 0.0634 ± 0.0026 | 0.09932 ± 0.00052 | 1.17 ± 0.021 |
| R111C | 0.0572 ± 0.0021 | 0.077 ± 0.0042 | 0.157 ± 0.0054 |
| R111D | 0.0585 ± 0.0013 | 0.06707 ± 0.00052 | 0.215 ± 0.0029 |
| R111E | 0.05864 ± 0.00052 | 0.0684 ± 0.00078 | 0.267 ± 0.013 |
| R111F | 0.0581 ± 0.00078 | 0.06927 ± 0.00052 | 0.328 ± 0.019 |
